Results from PMC3391105.

What was measured:
[1] = target: soluble mouse FcRn, GST-tagged (mFcRn heavy chain ectodomains with human β2-microglobulin) (mouse | human) (UniProt Q61559); test: SPR
[2] = target: soluble human FcRn, GST-tagged (hFcRn heavy chain ectodomains with human β2-microglobulin) (human) (UniProt P55899); test: SPR

| KD1 (heterogeneous ligand model) [1] | KD2 (heterogeneous ligand model) [1] | KD1 (heterogeneous ligand model) [2] | KD2 (heterogeneous ligand model) [2] | Substance |
| --- | --- | --- | --- | --- |
| 80.9 nM | 400 nM | – | – | anti-CEA cT84.66 scFv-Fc H435Q (Fc fusion) |
| 1.8 nM | 122 nM | 9.4 nM | 197 nM | anti-CEA cT84.66 scFv-Fc H435R (Fc fusion) |
| – | 43.8 nM | – | – | anti-CEA cT84.66 scFv-Fc WT (nonmutated) (Fc fusion) |
